Test results as given in the supplement of paper PMC7877785.
± gives the uncertainty stated by the source.

Assay: self-splicing fitness, log relative to wild type (ln ratio); higher = more splicing; Tetrahymena group I intron in knt gene, E. coli kanamycin selection, DiMSum; sequences stand for … in CUCUCU…GGAGGGAAAAGUUAUCAGGCAUGCACCUGGUAGCUAGUCUUUAAACCAAUAGAUUGCAUCGGUUUAAAAGGCAAGACCGUCAAAUUGCGGGAAAGGGGUCAACAGCCGUUCAGUACCAAGUCUCAGGGGAAACUUUGAGAUGGCCUUGCAAAGGGUAUGGUAAUAAGCUGACGGACAUGGUCCUAACCACGCAGCCAAGUCCUAAGUCAACAGAUCUUCUGUUGAUAUGGAUGCAGUUCACAGACUAAAUGUCGGUCGGGGAAGAUGUAUUCUUCUCAUAAGAUAUAGUCGGACCUCUCCUUAAUGGGAGCUAGCGGAUGAAGUGAUGCAACACUGGAGCCGCUGGGAACUAAUUUGUAUGCGAAAGUAUAUUGAUUAGUUUUGGAGUACUCGUGGUCG
In short: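 Six replicate transformations of E. coli BL21(DE3) with a pET-22b(+) library were grown overnight at 37°C or 30°C. The library randomised all eight P1ex-region intron nucleotides, the intron lying in the knt kanamycin-resistance gene, and plates were LB agar with or without 25 μg/mL kanamycin plus 100 μg/mL carbenicillin, 50 μM IPTG and 0.2% rhamnose. Pooled colonies were amplicon-sequenced on an Illumina HiSeq 2500, and fitness is the DiMSum error-weighted combination of wild-type-normalised replicate fold changes, kanamycin versus none.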

| Sequence | self-splicing fitness (ln) (30 °C) | self-splicing fitness (ln) (37 °C) |
| --- | --- | --- |
| GCUUAGCAAUAUUACGCGAU | -3.45 ± 0.34 | -1.69 ± 0.29 |
| UAGCAGCAAUAUUACGGCCU | -0.225 ± 0.093 | 0.118 ± 0.12 |
| GAUAAGCAAUAUUACGCUUU | -1.7 ± 0.14 | -2.17 ± 0.21 |
| CCAGAGCAAUAUUACGAAAA | -2.94 ± 0.32 | -1.54 ± 0.35 |
| GAAAAGCAAUAUUACGACCA | -0.386 ± 0.13 | 0.235 ± 0.19 |
| AACAAGCAAUAUUACGGACA | -1.6 ± 0.094 | 0.312 ± 0.095 |
| CGCUAGCAAUAUUACGUGGG | -3.6 ± 0.17 | -2.74 ± 0.21 |
| AAAUAGCAAUAUUACGAUGG | -2.87 ± 0.17 | -1.97 ± 0.2 |
| AUUAAGCAAUAUUACGCGGC | – | -2.33 ± 0.31 |
| GACUAGCAAUAUUACGGUUC | -3.18 ± 0.17 | -2.7 ± 0.32 |
| GAGGAGCAAUAUUACGCUUA | -1.5 ± 0.16 | -1.42 ± 0.21 |
| CGCUAGCAAUAUUACGGGAU | -3.77 ± 0.36 | -2.4 ± 0.26 |
| UCUCAGCAAUAUUACGGUUG | -3.46 ± 0.17 | -2.41 ± 0.21 |
| UACAAGCAAUAUUACGAGCA | -0.289 ± 0.067 | -0.0424 ± 0.075 |
| ACUAAGCAAUAUUACGAAGC | -3.67 ± 0.21 | -3.25 ± 0.22 |
| GACAAGCAAUAUUACGAAUG | -2.42 ± 0.1 | -0.875 ± 0.098 |
| CAUCAGCAAUAUUACGCAGG | -0.441 ± 0.062 | -1.15 ± 0.079 |
| AACGAGCAAUAUUACGCUAG | -3.61 ± 0.25 | -2.92 ± 0.43 |
| GAUAAGCAAUAUUACGUAGG | -3.01 ± 0.13 | -1.86 ± 0.15 |
| GUUAAGCAAUAUUACGGCUG | -0.765 ± 0.11 | -0.135 ± 0.13 |
| UUCCAGCAAUAUUACGGGGA | – | -2.87 ± 0.29 |

| Sequence | self-splicing fitness (ln) (30 °C) | self-splicing fitness (ln) (37 °C) |
| --- | --- | --- |
| UCAGAGCAAUAUUACGUUGU | -3.38 ± 0.2 | -3.51 ± 0.35 |
| AUUUAGCAAUAUUACGAUGU | -1.08 ± 0.096 | 0.369 ± 0.11 |
| GUAAAGCAAUAUUACGCGCG | -0.817 ± 0.14 | -0.615 ± 0.24 |
| CGUUAGCAAUAUUACGGGAU | – | -2.25 ± 0.26 |
| GGAAAGCAAUAUUACGUUGA | -2.31 ± 0.081 | -1.27 ± 0.084 |
| GGCGAGCAAUAUUACGCACG | -2.49 ± 0.28 | -2.71 ± 0.36 |
| UUCGAGCAAUAUUACGCUCA | -2.23 ± 0.25 | -1.9 ± 0.29 |
| CAUAAGCAAUAUUACGGCUC | -2.88 ± 0.44 | -1.88 ± 0.43 |
| AACCAGCAAUAUUACGCUCC | -0.493 ± 0.094 | -0.0692 ± 0.12 |
| AGCAAGCAAUAUUACGCGAU | -3.51 ± 0.37 | -0.149 ± 0.18 |
| GUCUAGCAAUAUUACGUUCA | -0.225 ± 0.11 | 0.35 ± 0.12 |
| AGCGAGCAAUAUUACGCUGG | -3.39 ± 0.28 | -3.38 ± 0.42 |
| CACAAGCAAUAUUACGACUC | -1.97 ± 0.11 | -0.998 ± 0.12 |
| CAGAAGCAAUAUUACGAGAG | -2.78 ± 0.17 | -1.98 ± 0.19 |
| CUAUAGCAAUAUUACGGGAA | -2.55 ± 0.32 | -2.26 ± 0.31 |
| UAGGAGCAAUAUUACGGAGU | -1.77 ± 0.36 | – |
| ACACAGCAAUAUUACGGAAA | -3.13 ± 0.26 | -2.5 ± 0.22 |
| GAAAAGCAAUAUUACGGUGG | -3.78 ± 0.2 | -1.66 ± 0.15 |
| UGUAAGCAAUAUUACGAGAC | -3.68 ± 0.43 | -0.552 ± 0.26 |
| UAUAAGCAAUAUUACGAAUU | -2.74 ± 0.19 | -0.731 ± 0.2 |
| AUCGAGCAAUAUUACGUCUU | -2.79 ± 0.12 | -1.41 ± 0.12 |

| Sequence | self-splicing fitness (ln) (30 °C) | self-splicing fitness (ln) (37 °C) |
| --- | --- | --- |
| UAUAAGCAAUAUUACGAGGG | -3.42 ± 0.3 | – |
| AACCAGCAAUAUUACGUAUG | -2 ± 0.076 | -0.882 ± 0.072 |
| CACAAGCAAUAUUACGAUCC | -2.35 ± 0.21 | -1.45 ± 0.23 |
| GGAGAGCAAUAUUACGGAUG | – | -1.45 ± 0.35 |
| GACGAGCAAUAUUACGGCUU | -1.43 ± 0.11 | -0.332 ± 0.14 |
| UGCAAGCAAUAUUACGUUCA | 0.123 ± 0.06 | 0.454 ± 0.088 |
| GAUAAGCAAUAUUACGCAAA | -1.8 ± 0.16 | -1.49 ± 0.2 |
| CGGUAGCAAUAUUACGGGAG | -3.22 ± 0.17 | -1.71 ± 0.14 |
| CUGCAGCAAUAUUACGCUCA | – | -2.21 ± 0.35 |
| GUAGAGCAAUAUUACGUAGC | -1.16 ± 0.19 | – |
| CAAAAGCAAUAUUACGAUUU | -1.18 ± 0.061 | -0.732 ± 0.075 |
| CCUGAGCAAUAUUACGGCUU | -3.73 ± 0.29 | -3.02 ± 0.27 |
| GCCGAGCAAUAUUACGCGCA | -1.42 ± 0.19 | -0.221 ± 0.14 |
| CAUAAGCAAUAUUACGAAUA | -1.84 ± 0.24 | -2.9 ± 0.43 |
| ACGGAGCAAUAUUACGGCUC | -3.6 ± 0.3 | -2.87 ± 0.48 |
| AUGGAGCAAUAUUACGGCAC | -1.14 ± 0.37 | -0.0162 ± 0.42 |
| GAUGAGCAAUAUUACGGUCA | -3.49 ± 0.47 | -0.516 ± 0.19 |
| AAGGAGCAAUAUUACGUCUA | -0.839 ± 0.24 | -0.933 ± 0.27 |
| GGCAAGCAAUAUUACGUGCG | -1.57 ± 0.1 | -0.197 ± 0.099 |
| GUAGAGCAAUAUUACGAGUC | -2.19 ± 0.17 | -1.47 ± 0.24 |
